In patent US7527954:

Target: biotinylated Calmodulin-binding peptide, biotin-…
Test: model selection from a 4200:1 mixture (ED-B:Calmodulin templates) on peptide-coated magnetic beads; 35-cycle PCR, 1:10^5 dilution, real-time PCR on 1 µl; background carry-over of the excess non-binder

Chain of biotinylated Calmodulin-binding peptide, biotin-… (peptide, as listed by the source): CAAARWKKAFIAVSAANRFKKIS

Substance: M.Hae III-ED-B fusion protein (covalently bonded to the linear DNA coding for it) (from UniProt P20589 1-330; P02751 1266-1356)
- DNA molecules detected after selection (DNA molecules): 1.4e+06
